Measurements from PMC9874840.

Target: human cyclophilin A (human) (UniProt P62937)
Test: SPR

Sequence of human cyclophilin A (human) (P62937 whole entry): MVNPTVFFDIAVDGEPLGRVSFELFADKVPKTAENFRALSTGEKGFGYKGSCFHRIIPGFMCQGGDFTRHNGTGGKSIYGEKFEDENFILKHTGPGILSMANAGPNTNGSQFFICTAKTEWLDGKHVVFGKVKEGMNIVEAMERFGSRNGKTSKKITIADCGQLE

Substance	Kd [µM]
SARS-CoV-2 RBD, Deltacron variant (AY.4/BA.1) (from UniProt P0DTC2) (domain or fragment)	0.0186
SARS-CoV-2 RBD, Omicron variant (BA.1, B.1.1.529) (from UniProt P0DTC2) (domain or fragment)	0.0264
